Assay results reported in patent US20250136688A1 (Janssen / Centocor, published 2025).

Key:
[1] = biological target: ectonucleotide pyrophosphatase/phosphodiesterase family member 2 (ENPP2) (human, UniProt Q13822 36-863); assay: flow cytometry on CHOK1 cells overexpressing ENPP2
Human CD3 epsilon [2] = biological target: T1, Human CD3 epsilon (human, UniProt P07766 23-207); assay: flow cytometry on T cells of healthy human donor 110042593
T1 construct: Stood on human T cells (pan-T cells, isolated donor T cells) as part of the TCR/CD3 complex; the other chains of the complex are not written here; also called CD3ε; CD3R
T1 sequence (P07766 23-207 limits assumed): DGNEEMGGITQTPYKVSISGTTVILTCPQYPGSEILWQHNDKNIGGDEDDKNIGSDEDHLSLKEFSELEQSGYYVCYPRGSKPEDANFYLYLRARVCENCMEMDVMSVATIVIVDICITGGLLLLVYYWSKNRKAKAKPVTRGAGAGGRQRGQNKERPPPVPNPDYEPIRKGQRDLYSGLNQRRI

[3] = biological target: T2, ectonucleotide pyrophosphatase/phosphodiesterase family member 3 (ENPP3) (human, UniProt O14638 1-875); assay: cell-based or functional assay
T2 sequence (looked up): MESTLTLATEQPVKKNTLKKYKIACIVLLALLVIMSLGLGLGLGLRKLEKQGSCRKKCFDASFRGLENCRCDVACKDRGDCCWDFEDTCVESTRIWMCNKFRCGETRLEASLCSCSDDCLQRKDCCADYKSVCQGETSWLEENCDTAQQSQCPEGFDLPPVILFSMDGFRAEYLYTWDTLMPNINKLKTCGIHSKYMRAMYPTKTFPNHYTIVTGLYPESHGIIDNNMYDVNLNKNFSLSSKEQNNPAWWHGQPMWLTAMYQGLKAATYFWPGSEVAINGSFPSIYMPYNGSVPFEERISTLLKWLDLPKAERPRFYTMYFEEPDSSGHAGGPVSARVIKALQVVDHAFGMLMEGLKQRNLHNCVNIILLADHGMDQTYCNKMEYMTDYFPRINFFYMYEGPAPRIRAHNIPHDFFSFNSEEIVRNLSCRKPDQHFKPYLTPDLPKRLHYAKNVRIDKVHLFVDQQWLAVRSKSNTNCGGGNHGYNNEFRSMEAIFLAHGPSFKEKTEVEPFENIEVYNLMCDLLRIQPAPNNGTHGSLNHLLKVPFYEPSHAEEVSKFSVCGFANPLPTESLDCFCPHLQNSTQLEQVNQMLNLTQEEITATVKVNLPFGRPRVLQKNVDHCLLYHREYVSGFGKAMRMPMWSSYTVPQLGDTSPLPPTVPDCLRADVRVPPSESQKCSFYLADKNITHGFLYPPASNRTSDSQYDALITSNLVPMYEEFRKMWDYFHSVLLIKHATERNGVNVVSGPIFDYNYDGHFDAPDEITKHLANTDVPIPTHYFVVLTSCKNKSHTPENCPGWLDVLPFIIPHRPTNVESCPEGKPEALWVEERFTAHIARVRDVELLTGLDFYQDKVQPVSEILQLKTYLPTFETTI

Human CD3 epsilon [4] = biological target: T1, Human CD3 epsilon; assay: flow cytometry on T cells of healthy human donor 110042496
Human CD3 epsilon [5] = biological target: T1, Human CD3 epsilon; assay: flow cytometry on T cells of healthy human donor 110044049
cyno ENPP3 = biological target: T3, cyno ENPP3 (cynomolgus monkey, UniProt A0A2K5TKP4 1-874); assay: cell-based or functional assay
T3 sequence: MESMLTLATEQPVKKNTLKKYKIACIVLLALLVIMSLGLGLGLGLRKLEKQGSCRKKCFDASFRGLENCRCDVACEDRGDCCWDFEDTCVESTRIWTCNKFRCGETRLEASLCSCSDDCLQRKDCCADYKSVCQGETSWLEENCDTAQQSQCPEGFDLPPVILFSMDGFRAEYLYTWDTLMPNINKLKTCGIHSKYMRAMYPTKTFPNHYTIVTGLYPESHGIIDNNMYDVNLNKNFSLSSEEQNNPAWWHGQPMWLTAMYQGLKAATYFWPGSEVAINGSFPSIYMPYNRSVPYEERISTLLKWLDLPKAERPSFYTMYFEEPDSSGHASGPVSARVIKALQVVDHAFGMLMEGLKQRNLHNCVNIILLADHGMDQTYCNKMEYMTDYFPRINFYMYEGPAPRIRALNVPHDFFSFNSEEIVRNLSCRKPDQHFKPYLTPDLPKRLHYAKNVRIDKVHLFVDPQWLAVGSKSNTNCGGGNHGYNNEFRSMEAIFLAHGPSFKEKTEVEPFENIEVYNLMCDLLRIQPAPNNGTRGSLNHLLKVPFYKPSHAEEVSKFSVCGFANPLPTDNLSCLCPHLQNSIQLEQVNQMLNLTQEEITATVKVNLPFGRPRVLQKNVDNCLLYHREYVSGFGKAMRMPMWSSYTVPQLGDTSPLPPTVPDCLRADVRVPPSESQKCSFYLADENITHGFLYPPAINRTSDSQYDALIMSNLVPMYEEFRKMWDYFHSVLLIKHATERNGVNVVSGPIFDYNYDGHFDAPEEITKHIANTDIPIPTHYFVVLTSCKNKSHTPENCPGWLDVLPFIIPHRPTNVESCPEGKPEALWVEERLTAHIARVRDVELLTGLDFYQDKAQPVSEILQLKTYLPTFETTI

B1: NPP3B815 (NPP3B56×CD3B2030-N106A-spFv) (bispecific antibody, human IgG1, kappa, L234A L235A)
chain: EIVLTQSPATLSASPGERVTLSCSASSSVSYMNWYQQKPGCAPRRWIYDSSKLASGVPARFSGSGSGRDYTLTISSLEPEDFAVYYCQQWSRNPPTFGGGTKVEIKGGGSGGSGGCPPCGGSGGQVQLVQSGAEVKKPGSSVKVSCKASGYTFTRSTMHWVKQAPGQGLEWIGYINPSSAYTNYNQKFQGRVTLTADKSTSTAYMELSSLRSEDTAVYYCASPQVHYDYAGFPYWGCGTLVTVSSEPKSSDKTHTCPPCPAPEAAGGPSVFLFPPKPKDTLMISRTPEVTCVVVSVSHEDPEVKFNWYVDGVEVHNAKTKPREEQYNSTYRVVSVLTVLHQDWLNGKEYKCKVSNKALPAPIEKTISKAKGQPREPQVYTLPPSREEMTKNQVSLWCLVKGFYPSDIAVEWESNGQPENNYKTTPPVLDSDGSFFLYSKLTVDKSRWQQGNVFSCSVMHEALHNHYTQKSLSLSPGK
heavy: EVQLVESGGGRVKPGGSLRLSCAASGFTFSDYSMNWVRQAPGKGLEWVSSISSISSYVKYADSVKGRFTMSRDNAKNSLFLQMNSLRDEDMAVYYCARGHYFDYWGQGTLVTVSSASTKGPSVFPLAPSSKSTSGGTAALGCLVKDYFPEPVTVSWNSGALTSGVHTFPAVLQSSGLYSLSSVVTVPSSSLGTQTYICNVNHKPSNTKVDKKVEPKSCDKTHTCPPCPAPEAAGGPSVFLFPPKPKDTLMISRTPEVTCVVVSVSHEDPEVKFNWYVDGVEVHNAKTKPREEQYNSTYRVVSVLTVLHQDWLNGKEYKCKVSNKALPAPIEKTISKAKGQPREPQVYTLPPSREEMTKNQVSLSCAVKGFYPSDIAVEWESNGQPENNYKTTPPVLDSDGSFFLVSKLTVDKSRWQQGNVFSCSVMHEALHNRFTQKSLSLSPGK
light: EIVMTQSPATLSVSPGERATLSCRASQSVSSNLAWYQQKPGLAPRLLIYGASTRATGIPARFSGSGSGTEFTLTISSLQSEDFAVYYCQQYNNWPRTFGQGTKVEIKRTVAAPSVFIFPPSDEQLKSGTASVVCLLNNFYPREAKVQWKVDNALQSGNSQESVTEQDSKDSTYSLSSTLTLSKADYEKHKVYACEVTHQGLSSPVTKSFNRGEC
notes: Heavy Chain 1 = anti-CD3 spFv-Fc (knob); Heavy Chain 2 and Light Chain = anti-ENPP3 Fab arm NPP3B56 (hole); IgG1 with L234A, L235A, D265S; also called ENPP3×CD3
binding result [1]: no binding
EC50 (Human CD3 epsilon [2]): 146000 pM
T-cell activation EC50, A704, donor 110040278, E:T 3:1 [3]: 8 pM
T-cell activation EC50, A704, donor 110042496, E:T 3:1 [3]: 17 pM
T-cell activation EC50, A704, donor 110042593, E:T 3:1 [3]: 13 pM
T-cell activation EC50, A704, donor 110044049, E:T 3:1 [3]: 8 pM
T-cell activation EC50, A704, donor 110048457, E:T 3:1 [3]: 10 pM
T-cell activation EC50, A704, donor 888668965, E:T 3:1 [3]: 8 pM
T-cell activation EC50, VMRCRCW, donor 110040278, E:T 3:1 [3]: 7 pM
T-cell activation EC50, VMRCRCW, donor 110042496, E:T 3:1 [3]: 15 pM
T-cell activation EC50, VMRCRCW, donor 110042593, E:T 3:1 [3]: 17 pM
T-cell activation EC50, VMRCRCW, donor 110044049, E:T 3:1 [3]: 9 pM
T-cell activation EC50, VMRCRCW, donor 110048457, E:T 3:1 [3]: 9 pM
T-cell activation EC50, VMRCRCW, donor 888668965, E:T 3:1 [3]: 16 pM
EC50 (Human CD3 epsilon [4]): 147000 pM
EC50 (Human CD3 epsilon [5]): 188000 pM
Cytotox. EC50, human T cells, HepG2-KO cyno ENPP3-OE cells, E:T 3:1 (cyno ENPP3): 79 pM
T-cell activation EC50, human T cells, HepG2-KO cyno ENPP3-OE cells, E:T 3:1 (cyno ENPP3): 23 pM
